Paper doi:10.1101/2024.10.01.616040 (bioRxiv, 2024)

B1: K3A/K4A-ORF1p (natural protein)
chain: MGAAQNRKTGNSKTQSASPPPKERSSSPATEQSWMENDFDELREEGFRRSNYSELREDIQTKGKEVENFEKNLEECITRITNTEKCLKELMELKTKARELREECRSLRSRCDQLEERVSAMEDEMNEMKREGKFREKRIKRNEQSLQEIWDYVKRPNLRLIGVPESDVENGTKLENTLQDIIQENFPNLARQANVQIQEIQRTPQRYSSRRATPRHIIVRFTKVEMKEKMLRAAREKGRVTLKGKPIRLTADLSAETLQARREWGPIFNILKEKNFQPRISYPAKLSFISEGEIKYFIDKQMLRDFVTTRPALKELLKEALNMERNNRYQPLQNHAKM
B2: ΔStammer-ORF1p (natural protein)
chain: MGKKQNRKTGNSKTQSASPPPKERSSSPATEQSWMENDFDELREEGFRRSNYSELREDIQTKGKEVENFEKNLEECITRITNTEKCLKELKTKARELREECRSLRSRCDQLEERVSAMEDEMNEMKREGKFREKRIKRNEQSLQEIWDYVKRPNLRLIGVPESDVENGTKLENTLQDIIQENFPNLARQANVQIQEIQRTPQRYSSRRATPRHIIVRFTKVEMKEKMLRAAREKGRVTLKGKPIRLTADLSAETLQARREWGPIFNILKEKNFQPRISYPAKLSFISEGEIKYFIDKQMLRDFVTTRPALKELLKEALNMERNNRYQPLQNHAKM

Key:
[1] = biological target: His-TEV-ORF1p (human) (UniProt Q9UN81); assay: mass photometry
[2] = biological target: the molecule itself; assay: mass photometry

Row | Molecule | percent of counts that are monomers [1] [%] | stoichiometry N [2]
1 | His-TEV-ORF1p (from UniProt Q9UN81 1-338) (natural protein) | 30 | –
2 | B1 | – | 6
3 | B2 | – | 6
